Source: PMC9813255 (2023)

Tests used:
[1] = target: human nucleolin (His-tag fusion protein) (human, UniProt P19338 1-710); assay: SPR; fibrillarin analyte, nucleolin immobilized
[2] = target: T1, full-length human PQBP5 (His-tag fusion protein) (human, UniProt Q9BSC4-1 1-688); assay: SPR; fibrillarin analyte, PQBP5 immobilized
T1 chain: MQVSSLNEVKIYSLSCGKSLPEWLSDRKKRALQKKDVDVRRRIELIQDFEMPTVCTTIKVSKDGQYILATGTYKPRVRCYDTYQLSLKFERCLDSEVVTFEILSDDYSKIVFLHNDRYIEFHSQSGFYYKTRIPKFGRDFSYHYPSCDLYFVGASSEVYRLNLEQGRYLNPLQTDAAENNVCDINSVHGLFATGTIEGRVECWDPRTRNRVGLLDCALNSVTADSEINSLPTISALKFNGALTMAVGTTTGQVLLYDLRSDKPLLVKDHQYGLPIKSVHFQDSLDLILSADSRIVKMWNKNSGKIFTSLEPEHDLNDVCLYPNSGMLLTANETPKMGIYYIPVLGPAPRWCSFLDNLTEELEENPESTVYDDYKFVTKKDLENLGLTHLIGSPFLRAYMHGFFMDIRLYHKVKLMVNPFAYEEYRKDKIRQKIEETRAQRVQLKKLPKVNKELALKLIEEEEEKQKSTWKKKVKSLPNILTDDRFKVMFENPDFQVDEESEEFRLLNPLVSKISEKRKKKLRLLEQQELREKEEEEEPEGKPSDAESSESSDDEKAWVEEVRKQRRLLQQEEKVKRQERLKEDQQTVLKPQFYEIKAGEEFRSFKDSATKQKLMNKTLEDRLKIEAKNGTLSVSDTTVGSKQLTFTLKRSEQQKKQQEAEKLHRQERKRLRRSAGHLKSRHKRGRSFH

Sequence of human nucleolin (His-tag fusion protein) (P19338 whole entry, the tested form may be a part): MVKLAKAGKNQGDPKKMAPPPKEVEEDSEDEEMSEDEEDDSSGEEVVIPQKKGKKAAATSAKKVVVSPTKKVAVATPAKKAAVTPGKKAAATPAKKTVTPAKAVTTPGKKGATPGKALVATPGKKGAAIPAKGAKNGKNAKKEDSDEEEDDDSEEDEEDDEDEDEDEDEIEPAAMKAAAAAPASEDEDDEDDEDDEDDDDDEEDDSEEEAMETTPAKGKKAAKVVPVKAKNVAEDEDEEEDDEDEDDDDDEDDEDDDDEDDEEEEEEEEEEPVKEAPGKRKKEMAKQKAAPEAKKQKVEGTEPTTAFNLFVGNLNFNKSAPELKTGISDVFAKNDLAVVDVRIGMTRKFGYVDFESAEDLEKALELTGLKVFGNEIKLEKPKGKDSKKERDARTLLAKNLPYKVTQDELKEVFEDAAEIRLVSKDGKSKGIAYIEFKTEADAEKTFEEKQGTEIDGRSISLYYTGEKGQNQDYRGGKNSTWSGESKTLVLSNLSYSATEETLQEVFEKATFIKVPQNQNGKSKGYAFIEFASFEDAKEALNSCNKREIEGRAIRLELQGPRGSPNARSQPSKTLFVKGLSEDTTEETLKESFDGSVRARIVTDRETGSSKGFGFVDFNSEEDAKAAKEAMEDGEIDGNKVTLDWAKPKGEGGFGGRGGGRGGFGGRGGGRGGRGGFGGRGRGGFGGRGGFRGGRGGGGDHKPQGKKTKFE

Kd [1]: 2.78 nM | Kd [2]: 10 nM
B1: human fibrillarin (His-tag fusion protein) (natural protein)
chain: MKPGFSPRGGGFGGRGGFGDRGGRGGRGGFGGGRGRGGGFRGRGRGGGGGGGGGGGGGRGGGGFHSGGNRGRGRGGKRGNQSGKNVMVEPHRHEGVFICRGKEDALVTKNLVPGESVYGEKRVSISEGDDKIEYRAWNPFRSKLAAAILGGVDQIHIKPGAKVLYLGAASGTTVSHVSDIVGPDGLVYAVEFSHRSGRDLINLAKKRTNIIPVIEDARHPHKYRMLIAMVDVIFADVAQPDQTRIVALNAHTFLRNGGHFVISIKANCIDSTASAEAVFASEVKKMQQENMKPQEQLTLEPYERDHAVVVGVYRPPPKVKN
